B1: KCNAB2 (parent)
chain: IPPYSRASLKGYQWLKDKILSEEG
B2: PSD2 (parent)
chain: PLMGETQERERVLTHFSRRYCQCN

Variants of: B1
Assay: protein stability index of a GFP-peptide fusion (GPS, HEK-293T) (PSI 1-6); higher = more stable
Details: c terminus: a fixed tail appended
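Further: lentivirally expressed fusions sorted by FACS into six bins by GFP to DsRed ratio, PSI derived from sequencing read proportions per bin multiplied by bin number.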

Variant	protein stability index
IPPYSRASLKGYQWLKDTILSEEG	2.11
IPPYSRASLKGYQWLKDWILSEEG	1.39
IPPYSRASLKGYQWLKDHILSEEG	1.98
IPPYSRASLKGYQWLKDQILSEEG	3.23
IPPYSRASLKGYQWLKDSILSEEG	3.17
IPPYSRASLKGYQWLKDVILSEEG	3.75
IPPYSRASLKGYQWLKDPILSEEG	2.83
IPPYSRASLKGYQWLKDYILSEEG	2.05
IPPYSRASLKGYQWLKDLILSEEG	1.6
IPPYSRASLKGYQWLKDMILSEEG	2.78
IPPYSRASLKGYQWLKDNILSEEG	3.29
IPPYSRASLKGYQWLKDIILSEEG	1.71
IPPYSRASLKGYQWLKDRILSEEG	1.02
IPPYSRASLKGYQWLKDKILSSEG	2.08
IPPYSRASLKGYQWLKDKILSTEG	1.97
IPPYSRASLKGYQWLKDKILSNEG	2.26
IPPYSRASLKGYQWLKDKILSVEG	1.22
IPPYSRASLKGYQWLKDKILSCEG	2.09
IPPYSRASLKGYQWLKDKILSPEG	2.48
IPPYSRASLKGYQWLKDKILSQEG	2.47
IPPYSRASLKGYQWLKDKILSKEG	1.75
IPPYSRASLKGYQWLKDKILSWEG	2.74
IPPYSRASLKGYQWLKDKILSAEG	2.74

Variant	protein stability index
IPPYSRASLKGYQWLKDKILSDEG	2.68
IPPYSRASLKGYQWLKDKILSFEG	2.12
IPPYSRASLKGYQWLKDKILSHEG	1.45
IPPYSRASLKGYQWLKDKILSGEG	1.68
IPPYSRASLKGYQWLKDKILSREG	1.62
IPPYSRASLKGYQWLKDKQLSEEG	2.12
IPPYSRASLKGYQWLKDKNLSEEG	2.86
IPPYSRASLKGYQWLKDKALSEEG	2.57
IPPYSRASLKGYQWLKDKTLSEEG	3.4
IPPYSRASLKGYQWLKDKYLSEEG	2.58
IPPYSRASLKGYQWLKDKFLSEEG	2.21
IPPYSRASLKGYQWLKDKRLSEEG	3.32
IPPYSRASLKGYQWLKDKMLSEEG	3.53
IPPYSRASLKGYQWLKDKHLSEEG	2.98
IPPYSRASLKGYQWLKDKLLSEEG	2.86
IPPYSRASLKGYQWLKDKPLSEEG	3.8
IPPYSRASLKGYQWLKDKDLSEEG	3.73
IPPYSRASLKGYQWLKDKVLSEEG	3.17
IPPYSRASLKGYQWLKDKSLSEEG	3.16
IPPYSRASLKGYQWLKDKELSEEG	4
IPPYSRASLKGYQWLKDKILSEES	2.49
IPPYSRASLKGYQWLKDKILSEEF	1.99
IPPYSRASLKGYQWLKDKILSEEP	1.95

Variant	protein stability index
IPPYSRASLKGYQWLKDKILSEEV	1.77
IPPYSRASLKGYQWLKDKILSEEK	2.61
IPPYSRASLKGYQWLKDKILSEER	1.47
IPPYSRASLKGYQWLKDKILSEEA	2.31
IPPYSRASLKGYQWLKDKILSEEN	2.05
IPPYSRASLKGYQWLKDKILSEEQ	3.79
IPPYSRASLKGYQWLKDKILSEEH	2.09
IPPYSRASLKGYQWLKDKILSEEC	2.06
IPPYSRASLKGYQWLKDKILSEEE	3.1
IPPYSRASLKGYQWLKDKILSEEY	1.48
IPPYSRASLKGYQWLKDKILSEET	1.99
IPPYSRASLKGYQWLKDKILSEEW	1.35
IPPYSRASLKGYQWLKDKILSEED	3.48
IPPYSRASLKGYQWLKDKILSEEM	2.56
IPPYSRASLKGYQWLKDKILSEEI	1.81
IPPYSRASLKGYQWLKDKILSEEL	1.43
IPPYSRASLKGYQWLKDKILSEKG	1.84
IPPYSRASLKGYQWLKDKILSEHG	1.76
IPPYSRASLKGYQWLKDKILSENG	2
IPPYSRASLKGYQWLKDKILSEAG	3.77
IPPYSRASLKGYQWLKDKILSEIG	2.62
IPPYSRASLKGYQWLKDKILSEFG	3.45
IPPYSRASLKGYQWLKDKILSEDG	1.51

Variant	protein stability index
IPPYSRASLKGYQWLKDKILSETG	3.2
IPPYSRASLKGYQWLKDKILSERG	2.43
IPPYSRASLKGYQWLKDKILSEQG	2.39
IPPYSRASLKGYQWLKDKILSEVG	2.5
IPPYSRASLKGYQWLKDKILSESG	4.83
IPPYSRASLKGYQWLKDKILSEPG	1.6
IPPYSRASLKGYQWLKDKILSEMG	2.31
IPPYSRASLKGYQWLKDKILSEYG	2.18
IPPYSRASLKGYQWLKDKILCEEG	2.42
IPPYSRASLKGYQWLKDKILAEEG	2.8
IPPYSRASLKGYQWLKDKILYEEG	2.08
IPPYSRASLKGYQWLKDKILGEEG	1.86
IPPYSRASLKGYQWLKDKILMEEG	2.43
IPPYSRASLKGYQWLKDKILFEEG	2.28
IPPYSRASLKGYQWLKDKILPEEG	2.45
IPPYSRASLKGYQWLKDKILVEEG	1.67
IPPYSRASLKGYQWLKDKILLEEG	2.19
IPPYSRASLKGYQWLKDKILREEG	1.68
IPPYSRASLKGYQWLKDKILNEEG	2.02
IPPYSRASLKGYQWLKDKILDEEG	3.56
IPPYSRASLKGYQWLKDKILIEEG	2.3
IPPYSRASLKGYQWLKDKILKEEG	3.24
IPPYSRASLKGYQWLKDKILQEEG	3.31

Variant	protein stability index
IPPYSRASLKGYQWLKDKILTEEG	2.31
IPPYSRASLKGYQWLKDKILHEEG	2.12
IPPYSRASLKGYQWLKDKILWEEG	3.22
IPPYSRASLKGYQWLKDKIISEEG	2.29
IPPYSRASLKGYQWLKDKIHSEEG	2.16
IPPYSRASLKGYQWLKDKIGSEEG	2.19
IPPYSRASLKGYQWLKDKIFSEEG	1.98
IPPYSRASLKGYQWLKDKIESEEG	3.75
IPPYSRASLKGYQWLKDKIASEEG	3.71
IPPYSRASLKGYQWLKDKIKSEEG	2.81
IPPYSRASLKGYQWLKDKICSEEG	2.63
IPPYSRASLKGYQWLKDKIQSEEG	2.8
IPPYSRASLKGYQWLKDKIMSEEG	2.47
IPPYSRASLKGYQWLKDKIPSEEG	3.27
IPPYSRASLKGYQWLKDKIYSEEG	2.51
IPPYSRASLKGYQWLKDKIDSEEG	3.91
IPPYSRASLKGYQWLKDKISSEEG	2.92
IPPYSRASLKGYQWLKDKITSEEG	3.54
IPPYSRASLKGYQWLKDKIVSEEG	2
IPPYSRASLKGYQWLKDKINSEEG	3.06
IPPYSRASLKGYQWLKDKIWSEEG	2.54

Variants of: B2
Assay: as above
Details: c terminus: a fixed tail appended

Variant	protein stability index
PLMGETQERERVLTVFSRRYCQCN	2.31
PLMGETQERERVLTPFSRRYCQCN	2.6
PLMGETQERERVLTYFSRRYCQCN	2.44
PLMGETQERERVLTLFSRRYCQCN	2.7
PLMGETQERERVLTTFSRRYCQCN	3.03
PLMGETQERERVLTDFSRRYCQCN	3.15
PLMGETQERERVLTQFSRRYCQCN	1.99
PLMGETQERERVLTHFSRRYCQNN	4.07
PLMGETQERERVLTHFSRRYCQFN	3.18
PLMGETQERERVLTHFSRRYCQQN	4.39
PLMGETQERERVLTHFSRRYCQDN	4.04
QLMGETQERERVLTHFSRRYCQCN	2.81
SLMGETQERERVLTHFSRRYCQCN	2.98
ILMGETQERERVLTHFSRRYCQCN	2.04
RLMGETQERERVLTHFSRRYCQCN	4.31
PLMGETQERERVLTHFSRRYCSCN	3.04
PLMGETQERERVLTHFSRRYCRCN	3.98
PLMGETQERERVLTHFSRRYCQCQ	2.88
PLMGETQERERVLTHFSRRYCQCS	3.38
PNMGETQERERVLTHFSRRYCQCN	3.42
PWMGETQERERVLTHFSRRYCQCN	2.58
PEMGETQERERVLTHFSRRYCQCN	3.91
PGMGETQERERVLTHFSRRYCQCN	4.03
PLMGETQERERVPTHFSRRYCQCN	3.19
PLMGETQERERVMTHFSRRYCQCN	3.3

Variant	protein stability index
PLMGETQERERVCTHFSRRYCQCN	4.49
PLMGETQERERVLTHFSRRYAQCN	3.46
PLMGETQERERVLTHFSRRYWQCN	3.17
PLMGETQERERVLSHFSRRYCQCN	3.18
PLMGETQERERVLTHFSRNYCQCN	3.54
PLMGETQERERVLTHFSRPYCQCN	3.59
PLMGETQERERVLTHFSRDYCQCN	3.25
PLMGETQERERVLTHFSRAYCQCN	2.98
PLMGETQERERVLTHFDRRYCQCN	3.37
PLSGETQERERVLTHFSRRYCQCN	2.97
PLMGETQERERVLTHFSVRYCQCN	2.02
PLMGETQERERVLTHFSYRYCQCN	1.97
PLMGETQERERVLTHFSARYCQCN	3.49
PLMGETQERERVLTHFSMRYCQCN	2.14
PLMGATQERERVLTHFSRRYCQCN	2.78
PLMGQTQERERVLTHFSRRYCQCN	2.07
PLMGTTQERERVLTHFSRRYCQCN	2.09
PLMGDTQERERVLTHFSRRYCQCN	2.38
PLMGLTQERERVLTHFSRRYCQCN	2.08
PLMSETQERERVLTHFSRRYCQCN	2.92
PLMEETQERERVLTHFSRRYCQCN	3.95
PLMGETQERESVLTHFSRRYCQCN	2.53
PLMGETQERETVLTHFSRRYCQCN	3.06
PLMGETQEREEVLTHFSRRYCQCN	3.98
PLMGETQEREWVLTHFSRRYCQCN	2.19

Variant	protein stability index
PLMGETQCRERVLTHFSRRYCQCN	2.17
PLMGETQARERVLTHFSRRYCQCN	2.03
PLMGETQNRERVLTHFSRRYCQCN	2.46
PLMGETQQRERVLTHFSRRYCQCN	3.54
PLMGETQRRERVLTHFSRRYCQCN	2.78
PLMGETQKRERVLTHFSRRYCQCN	2.12
PLMGETQFRERVLTHFSRRYCQCN	1.67
PLMGETQERERVLTHKSRRYCQCN	3
PLMGETQERERVLTHFSRRSCQCN	3.84
PLMGETQERERVLTHFSRRLCQCN	3
PLMGETQERERVLTHFSRRHCQCN	2.43
PLMGETQERERVLTHFSRRECQCN	4.57
PLMGETKERERVLTHFSRRYCQCN	2.4
PLMGETDERERVLTHFSRRYCQCN	3.72
PLMGETAERERVLTHFSRRYCQCN	3.21
PLMGETMERERVLTHFSRRYCQCN	2.22
PLMGETQEDERVLTHFSRRYCQCN	3.79
PLMGETQEMERVLTHFSRRYCQCN	2.16
PLMGEWQERERVLTHFSRRYCQCN	2.83
PLMGEQQERERVLTHFSRRYCQCN	2.97
PLMGECQERERVLTHFSRRYCQCN	4.24
PLMGEEQERERVLTHFSRRYCQCN	3.05
PLMGEMQERERVLTHFSRRYCQCN	2.52
PLMGETQERSRVLTHFSRRYCQCN	2.14
PLMGETQERQRVLTHFSRRYCQCN	2.33

From the supplement of paper PMC10567573
